Legend:
[1] = target: T1, cynomolgus monkey CD3 expressed on primary T cells (cynomolgus monkey, UniProt Q95LI5 22-198; Q95LI8 22-171; Q95LI7 23-181); assay: flow cytometry, 25 nM, cyno primary T cells
T1 construct: whole, on cells; CD3 complex on purified cynomolgus monkey T cells; also called cyno CD3
Method: (§1) Purified antibodies were confirmed to bind CD3 expressed on cells using the CytoFLEX S or LX flow cytometers (Beckman Coulter). Antibodies were diluted to 25 nM in FACS buffer (PBS+2% FBS) and were incubated with CD3-expressing cells for 30 minutes at 4° C. […] The median fluorescence intensity of the binding signal for each antibody was normalized to the isotype control to obtain a fold over isotype value. An antibody with a fold over isotype (FOI) of ≥10 was considered to be positive for binding.

[2] = target: T2, human CD3 expressed on cells (human, UniProt P07766 23-207; P04234 22-171; P09693 23-182); assay: flow cytometry, 25 nM
T2 construct: whole, on cells; CD3 complex on Jurkat cells and on human primary T cells
T2 sequence (P07766 23-207, chain 1 of 3): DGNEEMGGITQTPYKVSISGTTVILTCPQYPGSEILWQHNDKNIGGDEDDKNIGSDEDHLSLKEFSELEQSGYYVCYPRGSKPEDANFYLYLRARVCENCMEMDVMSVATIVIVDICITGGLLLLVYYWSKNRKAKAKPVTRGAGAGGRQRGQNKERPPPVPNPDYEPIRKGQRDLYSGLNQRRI
T2 sequence (P04234 22-171, chain 2 of 3): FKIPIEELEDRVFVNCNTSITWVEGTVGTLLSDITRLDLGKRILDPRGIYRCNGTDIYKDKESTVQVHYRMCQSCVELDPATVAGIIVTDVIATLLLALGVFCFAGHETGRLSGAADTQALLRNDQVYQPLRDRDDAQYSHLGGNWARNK
T2 sequence (P09693 23-182, chain 3 of 3): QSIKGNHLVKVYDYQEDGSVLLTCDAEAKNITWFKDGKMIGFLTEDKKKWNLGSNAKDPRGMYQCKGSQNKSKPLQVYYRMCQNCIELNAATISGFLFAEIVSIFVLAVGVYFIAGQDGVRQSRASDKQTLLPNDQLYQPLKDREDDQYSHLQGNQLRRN
Method: as §1

[3] = target: T3, cynomolgus monkey CD3 expressed on cyno primary T cells (cynomolgus monkey, UniProt Q95LI5 22-198; Q95LI8 22-171; Q95LI7 23-181); assay: flow cytometry, cyno primary T cells
T3 construct: whole, on cells; CD3 complex on purified cynomolgus monkey CD3 pan T cells; also called cyno CD3
T3 sequence (Q95LI5 22-198, chain 1 of 3): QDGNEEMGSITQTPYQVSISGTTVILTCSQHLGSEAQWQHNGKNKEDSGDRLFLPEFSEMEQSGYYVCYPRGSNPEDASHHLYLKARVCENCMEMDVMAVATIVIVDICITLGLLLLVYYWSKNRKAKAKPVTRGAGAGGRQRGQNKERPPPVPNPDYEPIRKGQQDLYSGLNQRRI
T3 sequence (Q95LI8 22-171, chain 2 of 3): as the sequence (P04234 22-171, chain 2 of 3) above, with I5V, N15K, I20V, S32T, D33N, I34N, T64A, S74N, V83L, H141R counted along it
T3 sequence (Q95LI7 23-181, chain 3 of 3): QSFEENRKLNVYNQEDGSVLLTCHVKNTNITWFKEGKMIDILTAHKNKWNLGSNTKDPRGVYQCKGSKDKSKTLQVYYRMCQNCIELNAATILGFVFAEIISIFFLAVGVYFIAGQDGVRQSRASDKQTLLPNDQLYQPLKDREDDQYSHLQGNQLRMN
Method: as §1

T1 sequence (Q95LI5 22-198, chain 1 of 3): as the sequence (Q95LI5 22-198, chain 1 of 3) above
T1 sequence (Q95LI8 22-171, chain 2 of 3): as the sequence (P04234 22-171, chain 2 of 3) above, with I5V, N15K, I20V, S32T, D33N, I34N, T64A, S74N, V83L, H141R counted along it
T1 sequence (Q95LI7 23-181, chain 3 of 3): as the sequence (Q95LI7 23-181, chain 3 of 3) above

binding result [1] | Human primary T Cell Binding (FOI) [2] [FOI] | Jurkat Cell Binding (FOI) [2] [FOI] | Binder | binding result [3]
no binding (tested: FOI >=10 = positive) | 98.5 | 111 | mAb 54 (antibody, V domains shown) VH: EVQLEESGGGLVQPGGSLRLSCAASGFTFSRYSMNWVRQAPGKGLEWFSYISSSSRTIYYADSVKGRFTMSRDNAKNSLYLQMNSLRDEDTAVYFCARGDYYDSEGMDVWGKGTTVTVSS VL: DIQMTQSPSTLSASVGDRVTITCRASQTITTWLAWYQQKPGKAPKLLIYKASTLESGVPSRFSGSGSGTEFTLTISSLQPDDFATYHCQQYKTFSYTFGQGTKLDIK | 
no binding (tested: FOI >=10 = positive) |  |  | mAb 90 (antibody, V domains shown) VH: EVQLVESGGGLVQPGGSLKLSCAASGFTFSGSAMHWVRQASGKGLEWVGRIRTKPNSYATSYAASVKDRFTISRDDSKNTAYLQMNSLKTEDTAVYYCIRGELEPWGQGTLVTVSS VL: not shown | 
no binding (tested: FOI >=10 = positive) | 102 | 99.8 | mAb 51 (antibody, V domains shown) VH: EVQLVESGGGLVQPGGSLRLSCAASGFTLSSYTMNWVRQAPGKGLEWVSYISSSSRTIYYSDSVKGRFSISRDNAKNSLYLQMNSLRDEDTALYYCAREDYYDSSGFDNWGQGTLVTVSS VL: AIRMTQSPSSFSASTGDRVTITCRASQGISSYLAWYQQKPGKAPKLLIYTASTLQSGVPSRFSGSGSGTDFTLTIRSLQSEDFATYYCQQYYSYPRTFGQGTKVEIK | 
no binding (tested: FOI >=10 = positive) | 199 | 184 | mAb 65 (antibody, V domains shown) VH: QVQLVESGGGVVQPGRSLRLSCAASGFTFSGYGMHWVRQAPGKGLDWVAIIYYNGNNKYYADSVKGRFTISRDNSKNTLYLQMNSLRAEDTAVYYCARGGGYNWFDPWGQGTLVIVSS VL: not shown | 
no binding (tested: FOI >=10 = positive) |  |  | mAb 109 (antibody, V domains shown) VH: QVQLVESGGGVVQPGRSLRLSCVASGFPFRSYGMHWVRQAPGKGLEWVAFIWYDGSNKYYADSVRGRFTISRDNFKKMVYLQMNSLRAEDTAVYYCARDLAGIYAFDVWGQGTVVTVSS VL: EIVMTQSPATLSVSPGERATLSCRASQSVSSNLAWYQQKPGQAPRLLIYGASTRATGIPARFSGSGSGTEFTLTVSSLQSEDFAIYYCQQYNNWRPLTFGGGTKVEIK | 
no binding (tested: FOI >=10 = positive) | 104 | 151 | mAb 55 (antibody, V domains shown) VH: QVQLEQSGAEVKKPGASVKVSCKTSGYIFANYDINWVRQATGQGLEWMGWMNPKSGKAGYAQKFQGRVTMTSNTPINTAYMELSSLRSEDTAVYYCAREGHYDFWRGFYSFDYWGQGILVTVSS VL: DIQMTQSPSSLSASVGDRVTITCRASQGIRNDLGWYQQKPGKAPKRLIYTASSLQSGVPSRFSGSGSGTEFTLTISSLQPEDFATYFCLQYNTYPYTFGQGTKLEIK | 
no binding (tested: FOI >=10 = positive) | 110 | 131 | mAb 44 (antibody, V domains shown) VH: QAQLVQSGSELKKPGASVKVSCKASGYTFTRHAMNWVRQAPGQGLEWMGWINTNTGNPTYAQGFTGRFVFSLDTSVSTAYLKISSLKAEDTAVYYCVREGDYDFWSGFFNFDYWGQGTLVTVSS VL: DIQMTQSPSSLSASVGDRVTITCRASQGIRNDLGWFQQKPGKAPTRLIYAASSLQSGVPSRFSGSGSGAEFTLTISSLQPEDFATYYCLQHNSYPRTFGQGTKVEIK | 
no binding (tested: FOI >=10 = positive) | 136 | 112 | mAb 47 (antibody, V domains shown) VH: QAQLVQSGSELKKPGASVKVSCKASGYTFTKHSMNWVRQAPGQGLEWMGWINTNTGNPTYAQGFTGRFVFSLDTSVTTAYLQISSLKAEDTAVYYCAREGDYDFWSGFFNFDYWGQGTLVTVSS VL: DIQMTQSPSSLSASVGDRVTITCRASQGIRNDLGWYQQKPGKAPKRLIYAASSLQSGVPSRFSGSGSGTEFTLTISSLQPEDFATYYCLQHNSYPRTFGQGTKVEIK | 

The next lines start with the binder.

Binder | binding result [1] | Human primary T Cell Binding (FOI) [2] [FOI] | Jurkat Cell Binding (FOI) [2] [FOI] | binding result [3]
mAb 152 (antibody, V domains shown) VH: QVQLVQSGAEVKKPGASVKVSCKASGYTFTAYHTHWVRQAPGQGLEWMGWIYPKSGRTTYTQKFQGRVTMTRDTSISTVYMELSRLKSDDTAVYYCARVGALLFDYWGQGTLVTVSS VL: not shown | no binding (tested: FOI >=10 = positive) |  |  | 
mAb 46 (antibody, V domains shown) VH: EGQLVESGGGLVQPGGSLRLSCVASGFTLSSYTLNWVRQAPGKGLEWVSYISSTSRTIYYSDSVKGRFTISRDNAKNSLYLQMNSLRDEDTALYYCAREDYYDSSGFDYWGQGTLVTVSS VL: AIRMTQSPSSFSASTGDRVTITCRASQGISSYLAWYQQKPGKAPKLLIYTASTLQSGVPSRFSGSGSGTDFTLTIRSLQSEDFATYYCQQYYSYPRTFGQGTKVEIK | no binding (tested: FOI >=10 = positive) | 96.9 | 107 | 
mAb 49 (antibody, V domains shown) VH: EVQLVESGGGLVPPGGSLRLSCVASGFTLRSYTMNWVRQAPGQGLEWISYISSTSRTIYYSDSVKGRFTISRDNAKNSLYLQVNSLRDEDTALYYCAREDYYDSSGFDCWGQGTLVTVSS VL: AIRMTQSPSSFSASTGDRVTITCRASQGIFNYLAWYQQKPGKAPKLLIYSTSTLQSGVPSRFSGSGSGTDFTLTIRGLQSEDLATYYCQQYYSFPRTFGQGTKVDIK | no binding (tested: FOI >=10 = positive) | 191 | 178 | 
mAb 42 (antibody, V domains shown) VH: QAQLVQSGSELKKPGASVKVSCKASGYTFTKHSMNWVRQAPGQGLEWMGWINTNTGNPTYAQGFTGRFVFSLDTSVTTAYLQISSLKAEDTAVYYCAREGDYDFWSGFFNFDYWGQGTLVTVSS VL: DIQMTQSPSSLSASVGDRVTITCRASQGIRNDLGWYQQKPGKAPKRLIYAASSLQSGVPSRFSGSGSGAEFTLTISSLQPEDFATYYCLQHNSYPRTFGQGTKVEIK | no binding (tested: FOI >=10 = positive) | 96.2 | 111 | 
mAb 53 (antibody, V domains shown) VH: QVQLVQSGAEVKKPGASVKVSCKASGYTFTSYDINWVRQATGQGLEWMGWMNPKSGKTGYAQKFQGRITMTRNTPISTVYMDLSSLRSEDTAVYYCAREGHYDFWTGYYSFDYWGQGTLVTVSS VL: DIQMTQSPSSLSASVGDRVTITCRASQGIRNDLGWYQQTPGKAPKRLIYAASSLQSGVPSRFSGSGSGTEFTLTISSLQPEDFATYYCLQHYSYPYTFGQGTKLEIK | no binding (tested: FOI >=10 = positive) | 34.8 | 44.6 | 
mAb 52 (antibody, V domains shown) VH: QVQLVQSGAEVKKPGASVKVSCKASGYTFTSHDINWVRQATGQGLEWMGWLNPNSGKTGYAQKFQGRVTMARDTSMYTADMELSSLRFEDTAVYYCARVGHYDMWPGFFSFDYWGQGTLVTVSS VL: DIQMTQSPSSLSASVGDRIIITCRASQDIRNDLGWYQQKPGKAPKRLIYAASSLQSGVPSRFSGSRSGTEFTLTISSLHPEDFATYYCLQHRSYPYTFGQGTNLEIK | no binding (tested: FOI >=10 = positive) | 185 | 181 | 
mAb 272 (antibody, V domains shown, VH/VL only) VH: EIQLVESGGGLVQPGESLKLSCAGSGFTFSVSAMHWVRQASGKGLEWVGRIRNKANSYATAYAASVKGRFTLSRDDSKNTAYLQMNSLKTEDTAVYYCSSYYYLSGTYYNYWGQGTLVTVSS VL: DIQMTQSPSSLSASVGDRVTITCRASQVIRNDLGWYQQKPGKAPKRLIHSASSLQGGVPSRFSGSGSGTEFTLTISSLQPEDFATYYCQQHNVNPCTFGQGTKLEIK |  |  |  | no binding (tested: FOI <10 (FOI >=10 = positive); 25 nM)
mAb 50 (antibody, V domains shown) VH: QAQLVQSGSELKKPGASVKVSCKASGYTFTRHAMNWVRQAPGQGLEWMGWINTNTGNPTYAQGFTGRFVFSLDTSVTTAYLQISSLKAEDTAVYYCAREGDYDFWSGFFNFDYWGQGTLVTVSS VL: DIQMTQSPSSLSASVGDRVTITCRASQGIRNDLGWFQQKPGKAPTRLIYAASSLQSGVPSRFSGSGSGAEFTLTISSLQPEDFATYYCLQHNSYPRTFGQGTKVEIK | no binding (tested: FOI >=10 = positive) | 86.4 | 92.5 | 
mAb 270 (antibody, V domains shown, VH/VL only) VH: EIQLVESGGGLVQPGESLKLSCAGSGFTFSVSAMHWVRQASGKGLEWVGRIRNKANSYATAYDASVKGRFTLSRDDSRNTAYLQMNSLKTEDTAVYYCSSYYYLSGTYYNYWGQGTLVTVSS VL: DIQMTQSPSSLSASVGDRVTITCRASQVIRNDLGWYQQKPGKAPKRLIHSASSLQGGVPSRFSGSGSGTEFTLTISSLQPEDFATYYCQQHNVNPCTFGQGTKLEIK |  |  |  | no binding (tested: FOI <10 (FOI >=10 = positive); 25 nM)
mAb 271 (antibody, V domains shown, VH/VL only) VH: EIQLVESGGGLVQPGESLKLSCAGSGFTFSVSAMHWVRQASGKGLEWVGRIRNKANSYATAYAASVKGRFTLSRDDSKNTAYLQMDSLKTEDTAVYYCSSYYYLSGTYYNYWGQGTLVTVSS VL: DIQMTQSPSSLSASVGDRVTITCRASQVIRNDLGWYQQKPGKAPKRLIHSASSLQGGVPSRFSGSGSGTEFTLTISSLQPEDFATYYCQQHNVNPCTFGQGTKLEIK |  |  |  | no binding (tested: FOI <10 (FOI >=10 = positive); 25 nM)

Reference: patent US20230295310A1 (ABCELLERA BIOLOGICS, published 2023)
